In paper PMC9727157, “The transmembrane domains mediate oligomerization of the human ZIP4 transporter in vivo” (Scientific Reports, 2022):

Molecular target: the molecule itself
Test: fluorescence correlation spectroscopy (FCS) with molecular brightness analysis; living transfected HEK293 cells, upper plasma membrane centred in the confocal volume; 23 °C, HEPES-buffered MEM without phenol red; 100 s (10 x 10 s); brightness compared with CD-86/eGFP (monomer) and CD-86/eGFP/eGFP (tandem, dimer) controls

Row | Protein | stoichiometry N
1 | full-length human ZIP4 tagged with eGFP (hZIP4/eGFP) (natural protein, UniProt Q6P5W5 23-647, looked up, human ZIP4 zinc transporter, full-length gene, residues 1-647; also called full-length hZIP4/eGFP; full-hZIP4/eGFP; source: HEK293 cells (HEK293T, ATCC CRL-3216), transiently transfected with 50 ng pcDNA3.1 plasmid, measured in living cells; not shown: eGFP (monomeric, A206K), C-terminal, kept) SPPAGLLSLLTSGQGALDQEALGGLLNTLADRVHCANGPCGKCLSVEDALGLGEPEGSGLPPGPVLEARYVARLSAAAVLYLSNPEGTCEDARAGLWASHADHLLALLESPKALTPGLSWLLQRMQARAAGQTPKMACVDIPQLLEEAVGAGAPGSAGGVLAALLDHVRSGSCFHALPSPQYFVDFVFQQHSSEVPMTLAELSALMQRLGVGREAHSDHSHRHRGASSRDPVPLISSSNSSSVWDTVCLSARDVMAAYGLSEQAGVTPEAWAQLSPALLQQQLSGACTSQSRPPVQDQLSQSERYLYGSLATLLICLCAVFGLLLLTCTGCRGVTHYILQTFLSLAVGAVTGDAVLHLTPKVLGLHTHSEEGLSPQPTWRLLAMLAGLYAFFLFENLFNLLLPRDPEDLEDGPCGHSSHSHGGHSHGVSLQLAPSELRQPKPPHEGSRADLVAEESPELLNPEPRRLSPELRLLPYMITLGDAVHNFADGLAVGAAFASSWKTGLATSLAVFCHELPHELGDFAALLHAGLSVRQALLLNLASALTAFAGLYVALAVGVSEESEAWILAVATGLFLYVALCDMLPAMLKVRDPRPWLLFLLHNVGLLGGWTVLLLLSLYEDDITF | 2
2 | truncated human ZIP4 (without ECD) tagged with eGFP (truncated hZIP4/eGFP) (domain or fragment, UniProt Q6P5W5 328-647, looked up, human ZIP4 zinc transporter without the N-terminal extracellular domain (residues 1-327 removed); the eight transmembrane domains, residues 328-647; also called eGFP-tagged truncated ZIP4; hZIP4 lacking the ECD; source: HEK293 cells (HEK293T, ATCC CRL-3216), transiently transfected with 50 ng pcDNA3.1 plasmid, measured in living cells; not shown: eGFP (monomeric, A206K), C-terminal, kept) LYGSLATLLICLCAVFGLLLLTCTGCRGVTHYILQTFLSLAVGAVTGDAVLHLTPKVLGLHTHSEEGLSPQPTWRLLAMLAGLYAFFLFENLFNLLLPRDPEDLEDGPCGHSSHSHGGHSHGVSLQLAPSELRQPKPPHEGSRADLVAEESPELLNPEPRRLSPELRLLPYMITLGDAVHNFADGLAVGAAFASSWKTGLATSLAVFCHELPHELGDFAALLHAGLSVRQALLLNLASALTAFAGLYVALAVGVSEESEAWILAVATGLFLYVALCDMLPAMLKVRDPRPWLLFLLHNVGLLGGWTVLLLLSLYEDDITF | 2
